Assay results as given in the supplement of paper PMC11246515.
± gives the standard deviation of the averaged measurements.

Assay: total protein half-life in vivo (active degradation + dilution); higher = more stable protein
[1] = E. coli NCM3722 delta-clpP, growth: N-lim chemostat, doubling time 6 h
[2] = E. coli NCM3722 delta-hslV, growth: N-lim chemostat, doubling time 6 h
[3] = E. coli NCM3722 delta-lon, growth: N-lim chemostat, doubling time 6 h
[4] = E. coli NCM3722 delta-smpB, growth: N-lim chemostat, doubling time 6 h
[5] = wild type E. coli NCM3722, growth: C-lim chemostat, doubling time 3 h
[6] = wild type E. coli NCM3722, growth: C-lim chemostat, doubling time 6 h
[7] = wild type E. coli NCM3722, growth: N-lim chemostat, doubling time 6 h
[8] = wild type E. coli NCM3722, growth: N-lim chemostat, doubling time 12 h
[9] = wild type E. coli NCM3722, growth: P-lim chemostat, doubling time 6 h
[10] = wild type E. coli NCM3722, growth: P-lim chemostat, doubling time 12 h
[11] = E. coli NCM3722 delta-clpP delta-lon delta-hslV, growth: N-lim chemostat, doubling time 6 h
[12] = wild type E. coli NCM3722, growth: C-lim chemostat, doubling time 12 h

| Sequence | total protein half-life in vivo [1] [h] | total protein half-life in vivo [2] [h] | total protein half-life in vivo [3] [h] | total protein half-life in vivo [4] [h] | total protein half-life in vivo [5] [h] | total protein half-life in vivo [6] [h] | total protein half-life in vivo [7] [h] | total protein half-life in vivo [8] [h] | total protein half-life in vivo [9] [h] | total protein half-life in vivo [10] [h] | total protein half-life in vivo [11] [h] | total protein half-life in vivo [12] [h] |
| --- | --- | --- | --- | --- | --- | --- | --- | --- | --- | --- | --- | --- |
| MIDPKKIEQIARQVHESMPKGIREFGEDVEKKIRQTLQAQLTRLDLVSREEFDVQTQVLLRTREKLALLEQRISELENRSTEIKKQPDPETLPPTL | 6.97 ± 0.85 | 6.5 ± 1.2 | 5.8 ± 0.65 | 5.79 ± 0.91 | 3.5 ± 0.19 | 5.53 ± 0.24 | 4.27 ± 0.63 | 11.5 ± 5.3 | 4.66 ± 1.2 | 10.8 ± 0.66 |  |  |
| MIDVLGPEKRRRRTTQEKIAIVQQSFEPGMTVSLVARQHGVAASQLFLWRKQYQEGSLTAVAAGEQVVPASELAAAMKQIKELQRLLGKKTMENELLKEAVEYGRAKKWIAHAPLLPGDGE [P0CF42] |  |  |  |  | 0.121 |  | 0.716 | 1.37 |  |  | 2.54 ± 0.27 | 1.26 |
| MIEFDNLTYLHGKPQGTGLLKANPEDFVVVEDLGFEPDGEGEHILVRILKNGCNTRFVADALAKFLKIHAREVSFAGQKDKHAVTEQWLCARVPGKEMPDLSAFQLEGCQVLEYARHKRKLRLGALKGNAFTLVLREVSNRDDVEQRLIDICVKGVPNYFGAQRFGIGGSNLQGAQRWAQTNTPVRDRNKRSFWLSAARSALFNQIVAERLKKADVNQVVDGDALQLAGRGSWFVATTEELAELQRRVNDKELMITAALPGSGEWGTQREALAFEQAAVAAETELQALLVREKVEAARRAMLLYPQQLSWNWWDDVTVEIRFWLPAGSFATSVVRELINTTGDYAHIAE | 5.85 ± 0.93 | 5.53 ± 0.64 | 6.03 ± 0.79 | 5.8 ± 0.21 | 3.11 ± 0.11 | 5.78 ± 0.067 | 4.93 ± 0.21 | 9.75 ± 0.26 | 5.99 ± 0.14 | 12.6 ± 0.88 | 5.52 ± 0.077 | 12.8 ± 1.1 |
| MIEKLRNIAIIAHVDHGKTTLVDKLLQQSGTFDSRAETQERVMDSNDLEKERGITILAKNTAIKWNDYRINIVDTPGHADFGGEVERVMSMVDSVLLVVDAFDGPMPQTRFVTKKAFAYGLKPIVVINKVDRPGARPDWVVDQVFDLFVNLDATDEQLDFPIVYASALNGIAGLDHEDMAEDMTPLYQAIVDHVPAPDVDLDGPFQMQISQLDYNSYVGVIGIGRIKRGKVKPNQQVTIIDSEGKTRNAKVGKVLGHLGLERIETDLAEAGDIVAITGLGELNISDTVCDTQNVEALPALSVDEPTVSMFFCVNTSPFCGKEGKFVTSRQILDRLNKELVHNVALRVEETEDADAFRVSGRGELHLSVLIENMRREGFELAVSRPKVIFREIDGRKQEPYENVTLDVEEQHQGSVMQALGERKGDLKNMNPDGKGRVRLDYVIPSRGLIGFRSEFMTMTSGTGLLYSTFSHYDDVRPGEVGQRQNGVLISNGQGKAVAFALFGLQDRGKLFLGHGAEVYEGQIIGIHSRSNDLTVNCLTGKKLTNMRASGTDEAVVLVPPIRMTLEQALEFIDDDELVEVTPTSIRIRKRHLTENDRRRANRAPKDD | 4.79 ± 0.39 | 4.54 ± 0.41 | 5.61 ± 0.38 | 4.62 ± 0.21 | 2.899 ± 0.022 | 5.8018 ± 0.005 | 4.387 ± 0.029 | 6.89 ± 0.16 | 5.58 ± 0.15 | 10.9 ± 0.83 | 5.32 ± 0.47 | 9.75 ± 0.82 |
| MIERGKFRSLTLINWNGFFARTFDLDELVTTLSGGNGAGKSTTMAAFVTALIPDLTLLHFRNTTEAGATSGSRDKGLHGKLKAGVCYSMLDTINSRHQRVVVGVRLQQVAGRDRKVDIKPFAIQGLPMSVQPTQLVTETLNERQARVLPLNELKDKLEAMEGVQFKQFNSITDYHSLMFDLGIIARRLRSASDRSKFYRLIEASLYGGISSAITRSLRDYLLPENSGVRKAFQDMEAALRENRMTLEAIRVTQSDRDLFKHLISEATNYVAADYMRHANERRVHLDKALEFRRELHTSRQQLAAEQYKHVDMARELAEHNGAEGDLEADYQAASDHLNLVQTALRQQEKIERYEADLDELQIRLEEQNEVVAEAIERQQENEARAEAAELEVDELKSQLADYQQALDVQQTRAIQYNQAIAALNRAKELCHLPDLTADCAAEWLETFQAKELEATEKMLSLEQKMSMAQTAHSQFEQAYQLVVAINGPLARNEAWDVARELLREGVDQRHLAEQVQPLRMRLSELEQRLREQQEAERLLADFCKRQGKNFDIDELEALHQELEARIASLSDSVSNAREERMALRQEQEQLQSRIQSLMQRAPVWLAAQNSLNQLSEQCGEEFTSSQDVTEYLQQLLEREREAIVERDEVGARKNAVDEEIERLSQPGGSEDQRLNALAERFGGVLLSEIYDDVSLEDAPYFSALYGPSRHAIVVPDLSQVTEHLEGLTDCPEDLYLIEGDPQSFDDSVFSVDELEKAVVVKIADRQWRYSRFPEVPLFGRAARESRIESLHAEREVLSERFATLSFDVQKTQRLHQAFSRFIGSHLAVAFESDPEAEIRQLNSRRVELERALSNHENDNQQQRIQFEQAKEGVTALNRILPRLNLLADDSLADRVDEIRERLDEAQEAARFVQQFGNQLAKLEPIVSVLQSDPEQFEQLKEDYAYSQQMQRDARQQAFALTEVVQRRAHFSYSDSAEMLSGNSDLNEKLRERLEQAEAERTRAREALRGHAAQLSQYNQVLASLKSSYDTKKELLNDLQRELQDIGVRADSGAEERARIRRDELHAQLSNNRSRRNQLEKALTFCEAEMDNLTRKLRKLERDYFEMREQVVTAKAGWCAVMRMVKDNGVERRLHRRELAYLSADDLRSMSDKALGALRLAVADNEHLRDVLRMSEDPKRPERKIQFFVAVYQHLRERIRQDIIRTDDPVEAIEQMEIELSRLTEELTSREQKLAISSRSVANIIRKTIQREQNRIRMLNQGLQNVSFGQVNSVRLNVNVRETHAMLLDVLSEQHEQHQDLFNSNRLTFSEALAKLYQRLNPQIDMGQRTPQTIGEELLDYRNYLEMEVEVNRGSDGWLRAESGALSTGEAIGTGMSILVMVVQSWEDESRRLRGKDISPCRLLFLDEAARLDARSIATLFELCERLQMQLIIAAPENISPEKGTTYKLVRKVFQNTEHVHVVGLRGFAPQLPETLPGTDEAPSQAS | 6.45 ± 0.38 | 4.36 ± 0.13 | 4.16 ± 0.34 | 4.2 ± 0.079 | 2.91 ± 0.16 | 5.16 ± 0.064 | 4.374 ± 0.017 | 5.78 ± 0.3 | 4.74 ± 0.084 | 6.65 ± 0.25 | 6.61 ± 0.52 | 8.24 ± 0.095 |
